As a reminder, the Ki is a measure of affinity in units of concentration, obtained from inhibition or displacement.

Consider 3 compounds from paper PMC5579238, “MAPK1 of Leishmania donovani interacts and phosphorylates HSP70 and HSP90 subunits of foldosome complex” (Scientific Reports, 2017).

Experiment [1] deals with T1, LdMAPK1 (Leishmania donovani, UniProt E2CWC1).
T1 construct: GST fused rLdMAPK1 (pGEX-KG-LdMAPK1), expressed in E. coli
T1 sequence (E2CWC1 1-358): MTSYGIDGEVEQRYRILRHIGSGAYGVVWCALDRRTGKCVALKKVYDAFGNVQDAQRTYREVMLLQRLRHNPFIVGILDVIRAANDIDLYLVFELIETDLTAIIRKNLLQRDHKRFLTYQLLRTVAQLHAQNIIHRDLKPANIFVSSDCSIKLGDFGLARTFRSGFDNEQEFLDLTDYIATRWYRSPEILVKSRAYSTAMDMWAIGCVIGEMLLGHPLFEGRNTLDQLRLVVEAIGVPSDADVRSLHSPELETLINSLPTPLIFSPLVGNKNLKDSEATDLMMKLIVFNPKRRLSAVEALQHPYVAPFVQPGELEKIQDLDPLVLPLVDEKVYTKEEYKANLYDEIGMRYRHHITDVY
Description: Kinase-Glo Plus ATP consumption assay with recombinant HSP90 or HSP70 as substrate; Dixon plot. It counts as biochemical. (Kinase-Glo measures the ATP left after a reaction by luminescence.)

For experiment [2], the target named is Leishmania donovani MAPK1 (L. donovani (endogenous in promastigotes)).

Where a name gives a salt, the structure may show the parent alone.

HSP70, sequence (P17804 whole entry): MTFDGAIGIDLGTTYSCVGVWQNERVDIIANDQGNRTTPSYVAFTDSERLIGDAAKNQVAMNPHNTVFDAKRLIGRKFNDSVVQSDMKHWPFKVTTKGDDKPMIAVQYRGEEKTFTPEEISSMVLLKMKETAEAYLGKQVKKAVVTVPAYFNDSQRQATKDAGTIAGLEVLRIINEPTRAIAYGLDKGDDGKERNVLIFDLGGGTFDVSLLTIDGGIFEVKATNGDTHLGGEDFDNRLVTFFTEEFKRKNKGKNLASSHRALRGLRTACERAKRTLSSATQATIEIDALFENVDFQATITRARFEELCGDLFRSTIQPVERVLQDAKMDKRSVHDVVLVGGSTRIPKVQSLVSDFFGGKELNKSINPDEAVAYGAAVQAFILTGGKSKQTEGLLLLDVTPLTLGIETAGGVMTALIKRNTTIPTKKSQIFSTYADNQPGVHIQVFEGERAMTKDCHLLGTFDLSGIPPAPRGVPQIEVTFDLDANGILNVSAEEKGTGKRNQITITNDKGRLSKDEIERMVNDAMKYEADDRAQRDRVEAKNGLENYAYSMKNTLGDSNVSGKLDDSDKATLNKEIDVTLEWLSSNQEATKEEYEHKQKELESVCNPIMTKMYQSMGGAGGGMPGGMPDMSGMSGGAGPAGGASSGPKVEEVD

For the compound `CCOc1ccc(C=C2SC(=O)N(CCN)C2=O)cc1` [AMTZD, 3-(2-aminoethyl)-5-([4-ethoxyphenyl]methylene)-2,4-thiazolidinedione HCl], in experiment [1], the inhibition constant (Ki) is 2720 ± 140 nM.

Regarding “HSP70 (from UniProt P17804 1-653) (natural protein)”, in experiment [2], the Km of the in vitro kinase assay (ATP consumption, Kinase-Glo) of recombinant GST-LdMAPK1 with recombinant His-tagged HSP70 as substrate stood at 0.0176 µM.

Consider HSP90 (natural protein), for which the Km of the in vitro kinase assay (ATP consumption, Kinase-Glo) of recombinant GST-LdMAPK1 with recombinant His-tagged HSP90 as substrate in experiment [2] is 0.0167 µM.
